Laboratory results from US20160243230A1.

Biological target: Vκ4Len(1-22) peptide, P06312
Experiment: EuLISA, peptide dried on the plate, 11-1F4 titrated from 100 nM

EC50: 0.5 nM
B1: murine 11-1F4 monoclonal antibody (antibody)
chain 1: QVQLKESGPGLVAPSQSLSITCTVSGFSLSSYGVSWVRQPPGKGLEWLGVIWGDGSTNYHPNLMSRLSISKDISKSQVLFKLNSLQTDDTATYYCVTLDYWGQGTSVTVSS
chain 2: DVVMTQTPLSLPVSLGDQASISCRSSQSLVHRNGNTYLHWYLQKPGQSPKLLIYKVSNRFSGVPDRFSGSGSGTDFTLKISRVEAEDLGLYFCFQTTYVPNTFGGGTKLEIK
